We go through two molecules from patent US9090686B2, “Antibodies for the treatment of HIV” (Pierre Fabre Medicament, priority 2009, dated 2015).

Where a chain is given by its changes, count along the chain named.

The IC90 is the concentration needed for an effect of 90%. Low readings indicate greater potency, high ones weaker potency.

Common to all, as to type: cell-based
For assay [1], the system named is R5 HIV-1 BaL virus. Description: GHOST cells expressing CD4 and CCR5 infected with R5 HIV-1 BaL virus. The procedure:
(§1) In order to determine the specificity of CXCR4 515H7 Mab, we evaluated the anti-HIV-1 activity of this Mab using GHOST cells expressing CD4 and CXCR4 or CCR5.
(§2) This assay is performed in 48 h using either the X4 HIV-1 LAI virus (with Ghost cells expressing CXCR4) or the R5 HIV-1 BaL virus (with Ghost cells expressing CCR5). 500 μl of Ghost cells were plated (2.5 10^5 cells/ml) for 24 h in Dulbecco culture medium supplemented with 10% FCS. Various dilutions of Mab 515H7 were incubated for 1 h at 37° C. and then diluted HIV-1 LAI virus ( 1/10) and HIV-1 BaL virus ( 1/7) were added to the cells for 48h. Cells were submitted to trypsin and washed with PBS 1×. 300 μL of 1.5% paraformaldehyde were added to the cell pellets for 2 h at +4° C. in the dark, in order to fix the cells and to inactivate viruses. GFP-positive cells were analyzed by flow cytometry and inhibition of HIV-1 infection was calculated.
(§3) The percent of inhibition of infected cells was defined as […] with control infected wells with no Mab.

Assay [2] relates to X4 HIV-1 LAI virus. Description: GHOST cells expressing CD4 and CXCR4 infected with X4 HIV-1 LAI virus. On the procedure: as §1, §2, §3
Assay [3] has as its system HIV-1 primary isolate KON (X4 virus). Description: HIV-1 KON replication in PHA-activated human PBMC, single cycle neutralization, p24 FACS (Example 5). The conditions noted are these: HIV-1 KON replication in PBMC, molar value in brackets. The procedure:
PBMC from normal donors seronegative for HIV-1 were isolated from buffy coats or cytapheresis by Ficoll-Hypaque gradient centrifugation. PBMC were activated in the presence of PHA in RPMI 1640 cell culture medium containing 25 mM HEPES, 5 ml penicillin (10000 U/ml)-streptomycin (10000 μg/ml) 2 mM L-glutamine, supplemented with 10% heat-inactivated FCS and were used as cellular targets in a single cycle neutralization assay. HIV-1 replication in primary human PBMC was performed by analyzing intracellular staining of viral p24 antigen by FACS analysis. Briefly, 25 μl per well of various dilutions of Mabs 515H7, 301aE5 and 12G5 (R&D Systems) or culture medium as control (RPMI 1640, 10% FCS, 0.1% IL-2), were incubated for 1 h at 37° C. with 25 μl per well of HIV-1 KON X4 primary isolate dilution, in duplicate. PHA-activated human PBMC (25 μl/well) at 20×10^6 cells/ml were added to the Mab/virus mixture in a 96-well plate (U-bottom, Costar 3599) and cultured for 24 to 36 hours at 37° C. in RPMI 1640 10% FCS and 0.1% IL-2. […] To detect HIV-infected PBMC, intracellular staining of viral p24 antigen was performed and analyzed by flow cytometry. […] The percentage of p24-positive cells in the different samples was determined by gating 20,000 events on a living cell population. The living cell subsets were analyzed for p24 expression relative to background staining of uninfected cells. […]

B1: 515H7: murine anti-CXCR4 monoclonal antibody; light chain variable domain SEQ ID No. 7, heavy chain variable domain SEQ ID No. 8 (antibody, listed as Mus musculus, V domains shown)
VH: EVNLVESGGGLVQPGGSLRLSCATSGFTFTDNYMSWVRQPPGKALEWLGFIRNKANGYTTDYSASVRGRFTISRDNSQSILYLQMNALRAEDSATYYCARDVGSNYFDYWGQGTTLTVSS
VL: DIVMSQSPSSLAVSAGEKVTMSCKSSQSLFNSRTRKNYLAWYQQKPGQSPKLLIYWASARDSGVPARFTGSGSETYFTLTISRVQAEDLAVYYCMQSFNLRTFGGGTKLEIK
Take B1: in assay [1], the “inhibition of HIV-1 R5 BaL virus infection in CCR5 expressing Ghost cells (in words)” value is “totally inactive”. In addition, the “inhibition of HIV-1 X4 Lai virus infection in CXCR4 expressing Ghost cells (in words)” value in assay [2] is “able to inhibit”. In assay [2] (IC for 80% inhibition), the “GHOST CXCR4/LAI virus % inhibition of infected cells 80” value was found to be 0.1 µg/mL. In assay [3], this molecule had an IC90 of 66 nM.

B2: 301aE5: murine anti-CXCR4 monoclonal antibody; light chain variable domain SEQ ID No. 34, heavy chain variable domain SEQ ID No. 35 (antibody, listed as Mus musculus, V domains shown)
VH: QVQLKESGPGLVAPSQSLSITCTVSGFSLTDYGVYWVRQPPGKGLEWLGMIWGDGTTDYNSALKSRLSISKDNSKSQVFLKMNTLQTDDTARYYCARGRQFGFDYWGQGTTLTVSS
VL: B1 VL with S22R, Y55F, A59I, D61E, A66D, E74G, Y76D, R83S, M95K, F98Y
With B2, in assay [3], it took 1000 nM to reach the 90% level (IC90).
